Source: the supplement of paper PMC9170038

What follows are sequences tested on K4 kissing-loop RNA reporter (assay: apparent KD of K4 kissing-loop reporter; higher = weaker reporter binding). Settings: Eterna round: R107; input ligand: none.
Experimental: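 RNA-MaP round R107: designed RNA switches with theophylline, tryptophan, arginine or FMN aptamers are transcribed on-chip within common flanks. They are titrated with a labelled K4 kissing-loop RNA reporter in RNA-MaP buffer (100 mM Tris pH 7.5, 80 mM KCl, 4 mM MgCl2), without ligand or with the indicated ligand. Median apparent KD per design.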
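Further: bound reporter read as fluorescence of individual clusters on recovered sequencing chips by microscopy, with normalized cluster intensities fitted with a binding model.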

Going from “AAGGGCGGAACAACCUCGCCGGAUAGAGAUACCAGCCCAGCAAUGGGCCCUUGGCAGCUCACUGACCUCAGUGAUGUUGAGGUUC [Laar]” to “AGUAAUAUCACGGCCGCCACUGAUUAUUGUUUUUAUAGUUAUAAAUCUUGCCAGUGAUGUUGGUUCAGGACCGGGUGAGUUAAUA [JR_SSTryptoB_Sub001]”, the “apparent KD of K4 kissing-loop reporter” value rises from 0.248 µM to 0.584 µM (2.4-fold).

First: CCGUGGAGUGAUGUUCCACGUUCUACGGAUACCAGCCACGCCAGCGGCCCUUGGCAGCCGCACCUUGCAGUGAUGUUGUGAGGCU [Same State Theophylline A GF 5]
Second: UGUUACCAGUGAUGUUGGGAGAUGAAGAGCAAGGAUAUGUGAUAGUACAGAAGGUGCGUCGUCGUGAUUAUCACGCUCUGUGUUA [theeternabot_exclusion_KL_FMN_A_8]
The “apparent KD of K4 kissing-loop reporter” value of the first is 2.5-fold higher: 0.349 µM for the first, 0.141 µM for the second.

Compared with “GCCUAGGCUCGAAAGAGCCUAGGCUUUACUCAGGAUAUCUGGAAACAGAGAAGGGAGCUACUAGUGAUGUUAGGAAUUCCCUAAG”, “UUAAUUAAGACGGCCGCCACUGAAUUAGAGUGAUGUUCUAAAAUUACUAAAUUAAAUUUAUUCAACAGGACCGGGUCAAUUAUUA [JR_SSTryptoB_Sub009]” is 4.2-fold higher in “apparent KD of K4 kissing-loop reporter” value: 0.133 µM for the first, 0.56 µM for the second.

“UGACUGGAUGGAAGGAGCGCUAAACUCCUAGUGAUGUUAGGGAAAUGAGGCAAAGCCUCGAGGCAGGUAGGUCGCCAUCUAGUCU [FiskerMod 18 - Jieux - Same State - Arginine B]” and “GUAGACGUACCUUCAGUGAUGUUGAAGGAUACCAGAUGUUACCACAUCCCUUGGCAGCCUUGGGAUAACAGUGAGUUGGAAUAUG [Usrite]” are within 1.5-fold of each other in “apparent KD of K4 kissing-loop reporter” value: 0.155 µM for the first, 0.172 µM for the second.

For “UGGACAUGACUCGAUAAGAGUCAAUGGGAUACCAGUGACGAAAGUCACCCUUGGCAGCUCAACUGCCAGUGAUGUUGGUAGUCCA [Astros-Elo-mod#2]”, the “apparent KD of K4 kissing-loop reporter” value was 0.224 µM.

Same assay, conditions: Eterna round: R107; input ligand: theophylline 20 uM

First: AAGUCAUAGGCAGGAUAUGCAUAGUAAUAAGGCCAUAUAUACGUAUAGAGUGAUGUUUUGUACCAGGCAGAAGGGCUACAUCAGU [FMN B Excl V7 (+3A)]
Second: UCUCAUCUCAGAAGGAGCGUGAGAGAAUAUUAGAAAUCGUCGAGUGAUGUUCGACGUCUCUCACAGGUAGGUCGCUGAGACGUCA [Arg B SS t9]
The “apparent KD of K4 kissing-loop reporter” value of the first is 5.3-fold higher: 0.643 µM for the first, 0.121 µM for the second.

Going from “UCUUUUGGCAUGGAUAGAAUGCCGACCGAUACCAGCAAAGUAGGAUGCCCUUGGCAGCGGAGUGAUGUUCCAUUGUCGCGGUUUG [theeternabot_exclusion_KL_Theo_A_48]” to “GUCUGUGUACUAGGAUAUGGUUGCAGACAGUCAGGUCGCCUUUUCGGCGGCCAGUGAUGUUGGUGGCCAGAAGGAGUACGUGAAG [Biririge]”, the “apparent KD of K4 kissing-loop reporter” value rises from 0.0844 µM to 0.395 µM (4.7-fold).

First: UGUGUACCGGGAAGGAGCGUGAAUGAGAAUGGAUAUAGUGAUGUUAUGUAUACGAACGAAUCGCAGGUAGGUCGCCCGGAUCCCU [SSArgB.Z]
Second: GAUUUAGAGGCGGCCGCCACUAGUGAUGUUAGUGAUGUUUGAUACUGAAUAUAUCUGCGUGUAGAUAGGACCGGGCCAGAUGGAG [eyerullin]
The “apparent KD of K4 kissing-loop reporter” value of the first is 2.2-fold higher: 0.396 µM for the first, 0.184 µM for the second.

First: AAAAGAAAGUCGGCCGCCACUCAACGCAGUGAUGUUGCAAGACAGAAGACCAGUGAUGUUGGCCAGAGGACCGGGACAAAAGGCC [Same State Typtophan B GF 4]
Second: CACGAUGAAUUCUCUAGGAGUGAUGUUUUUCGAGGACCGGUACGGCCGCCACUCGGACGACGAGCGUGGUAGCGGCCUGAAGACU [,omullin]
The “apparent KD of K4 kissing-loop reporter” value of the first is 1.6-fold lower: 0.435 µM for the first, 0.68 µM for the second.

Compared with “AUGUAUGAAUUAGGAUAUCGUUAGCCUAUCAUAUAUAUGAUAAAUGGAUAUGUCGUAGUGAUGUUACGAGAAGGAGUGUGGAGUA [KL-XFMN-B7]”, “AAGGGCGGAACAACCUCGCCGGAUAGAGAUACCAGCCCAGCAAUGGGCCCUUGGCAGCUCACUGACCUCAGUGAUGUUGAGGUUC [Laar]” is 2.3-fold higher in “apparent KD of K4 kissing-loop reporter” value: 0.0827 µM for the first, 0.188 µM for the second.

Going from “AGUAAUAUCACGGCCGCCACUGAUUAUUGUUUUUAUAGUUAUAAAUCUUGCCAGUGAUGUUGGUUCAGGACCGGGUGAGUUAAUA [JR_SSTryptoB_Sub001]” to “CCGUGGAGUGAUGUUCCACGUUCUACGGAUACCAGCCACGCCAGCGGCCCUUGGCAGCCGCACCUUGCAGUGAUGUUGUGAGGCU [Same State Theophylline A GF 5]”, the “apparent KD of K4 kissing-loop reporter” value falls from 0.727 µM to 0.33 µM (2.2-fold).

“UGUUACCAGUGAUGUUGGGAGAUGAAGAGCAAGGAUAUGUGAUAGUACAGAAGGUGCGUCGUCGUGAUUAUCACGCUCUGUGUUA [theeternabot_exclusion_KL_FMN_A_8]” and “GCCUAGGCUCGAAAGAGCCUAGGCUUUACUCAGGAUAUCUGGAAACAGAGAAGGGAGCUACUAGUGAUGUUAGGAAUUCCCUAAG” are within 1.5-fold of each other in “apparent KD of K4 kissing-loop reporter” value: 0.138 µM for the first, 0.141 µM for the second.

First: UUAAUUAAGACGGCCGCCACUGAAUUAGAGUGAUGUUCUAAAAUUACUAAAUUAAAUUUAUUCAACAGGACCGGGUCAAUUAUUA [JR_SSTryptoB_Sub009]
Second: UGACUGGAUGGAAGGAGCGCUAAACUCCUAGUGAUGUUAGGGAAAUGAGGCAAAGCCUCGAGGCAGGUAGGUCGCCAUCUAGUCU [FiskerMod 18 - Jieux - Same State - Arginine B]
The “apparent KD of K4 kissing-loop reporter” value of the first is 3.6-fold higher: 0.527 µM for the first, 0.148 µM for the second.

“GUAGACGUACCUUCAGUGAUGUUGAAGGAUACCAGAUGUUACCACAUCCCUUGGCAGCCUUGGGAUAACAGUGAGUUGGAAUAUG [Usrite]” and “UGGACAUGACUCGAUAAGAGUCAAUGGGAUACCAGUGACGAAAGUCACCCUUGGCAGCUCAACUGCCAGUGAUGUUGGUAGUCCA [Astros-Elo-mod#2]” are within 1.5-fold of each other in “apparent KD of K4 kissing-loop reporter” value: 0.156 µM for the first, 0.134 µM for the second.

Same assay, conditions: Eterna round: R107; input ligand: tryptophan 2.4 mM

Compared with “AAGUCAUAGGCAGGAUAUGCAUAGUAAUAAGGCCAUAUAUACGUAUAGAGUGAUGUUUUGUACCAGGCAGAAGGGCUACAUCAGU [FMN B Excl V7 (+3A)]”, “UCUCAUCUCAGAAGGAGCGUGAGAGAAUAUUAGAAAUCGUCGAGUGAUGUUCGACGUCUCUCACAGGUAGGUCGCUGAGACGUCA [Arg B SS t9]” is 4.2-fold lower in “apparent KD of K4 kissing-loop reporter” value: 0.47 µM for the first, 0.111 µM for the second.

First: UCUUUUGGCAUGGAUAGAAUGCCGACCGAUACCAGCAAAGUAGGAUGCCCUUGGCAGCGGAGUGAUGUUCCAUUGUCGCGGUUUG [theeternabot_exclusion_KL_Theo_A_48]
Second: GUCUGUGUACUAGGAUAUGGUUGCAGACAGUCAGGUCGCCUUUUCGGCGGCCAGUGAUGUUGGUGGCCAGAAGGAGUACGUGAAG [Biririge]
The “apparent KD of K4 kissing-loop reporter” value of the first is 19-fold lower: 0.0769 µM for the first, 1.48 µM for the second.

Compared with “UGUGUACCGGGAAGGAGCGUGAAUGAGAAUGGAUAUAGUGAUGUUAUGUAUACGAACGAAUCGCAGGUAGGUCGCCCGGAUCCCU [SSArgB.Z]”, “GAUUUAGAGGCGGCCGCCACUAGUGAUGUUAGUGAUGUUUGAUACUGAAUAUAUCUGCGUGUAGAUAGGACCGGGCCAGAUGGAG [eyerullin]” is 2.6-fold lower in “apparent KD of K4 kissing-loop reporter” value: 0.461 µM for the first, 0.18 µM for the second.

“AAAAGAAAGUCGGCCGCCACUCAACGCAGUGAUGUUGCAAGACAGAAGACCAGUGAUGUUGGCCAGAGGACCGGGACAAAAGGCC [Same State Typtophan B GF 4]” and “CACGAUGAAUUCUCUAGGAGUGAUGUUUUUCGAGGACCGGUACGGCCGCCACUCGGACGACGAGCGUGGUAGCGGCCUGAAGACU [,omullin]” are within 1.5-fold of each other in “apparent KD of K4 kissing-loop reporter” value: 0.464 µM for the first, 0.38 µM for the second.

Going from “AUGUAUGAAUUAGGAUAUCGUUAGCCUAUCAUAUAUAUGAUAAAUGGAUAUGUCGUAGUGAUGUUACGAGAAGGAGUGUGGAGUA [KL-XFMN-B7]” to “AAGGGCGGAACAACCUCGCCGGAUAGAGAUACCAGCCCAGCAAUGGGCCCUUGGCAGCUCACUGACCUCAGUGAUGUUGAGGUUC [Laar]”, the “apparent KD of K4 kissing-loop reporter” value rises from 0.039 µM to 0.232 µM (5.9-fold).

“AGUAAUAUCACGGCCGCCACUGAUUAUUGUUUUUAUAGUUAUAAAUCUUGCCAGUGAUGUUGGUUCAGGACCGGGUGAGUUAAUA [JR_SSTryptoB_Sub001]” and “CCGUGGAGUGAUGUUCCACGUUCUACGGAUACCAGCCACGCCAGCGGCCCUUGGCAGCCGCACCUUGCAGUGAUGUUGUGAGGCU [Same State Theophylline A GF 5]” are within 1.5-fold of each other in “apparent KD of K4 kissing-loop reporter” value: 0.299 µM for the first, 0.302 µM for the second.

“UGUUACCAGUGAUGUUGGGAGAUGAAGAGCAAGGAUAUGUGAUAGUACAGAAGGUGCGUCGUCGUGAUUAUCACGCUCUGUGUUA [theeternabot_exclusion_KL_FMN_A_8]” and “GCCUAGGCUCGAAAGAGCCUAGGCUUUACUCAGGAUAUCUGGAAACAGAGAAGGGAGCUACUAGUGAUGUUAGGAAUUCCCUAAG” are within 1.5-fold of each other in “apparent KD of K4 kissing-loop reporter” value: 0.111 µM for the first, 0.0878 µM for the second.

Compared with “UUAAUUAAGACGGCCGCCACUGAAUUAGAGUGAUGUUCUAAAAUUACUAAAUUAAAUUUAUUCAACAGGACCGGGUCAAUUAUUA [JR_SSTryptoB_Sub009]”, “UGACUGGAUGGAAGGAGCGCUAAACUCCUAGUGAUGUUAGGGAAAUGAGGCAAAGCCUCGAGGCAGGUAGGUCGCCAUCUAGUCU [FiskerMod 18 - Jieux - Same State - Arginine B]” is 3.6-fold lower in “apparent KD of K4 kissing-loop reporter” value: 0.524 µM for the first, 0.144 µM for the second.

“GUAGACGUACCUUCAGUGAUGUUGAAGGAUACCAGAUGUUACCACAUCCCUUGGCAGCCUUGGGAUAACAGUGAGUUGGAAUAUG [Usrite]” and “UGGACAUGACUCGAUAAGAGUCAAUGGGAUACCAGUGACGAAAGUCACCCUUGGCAGCUCAACUGCCAGUGAUGUUGGUAGUCCA [Astros-Elo-mod#2]” are within 1.5-fold of each other in “apparent KD of K4 kissing-loop reporter” value: 0.15 µM for the first, 0.166 µM for the second.
